Values belong to the binder of their own block, whether it stands above or below them.
Experiments:
[1] = target: B6; assay: SPR; equilibrium
[2] = target: A8; assay: SPR; kinetic
[3] = target: C2; assay: SPR; kinetic
[4] = target: C12; assay: SPR; kinetic
[5] = target: C3; assay: SPR; kinetic
[6] = target: C10; assay: SPR; kinetic
[7] = target: C7; assay: SPR; kinetic
[8] = target: C9; assay: SPR; kinetic
[9] = target: A6; assay: SPR; kinetic
[10] = target: A7; assay: SPR; kinetic
[11] = target: C2; assay: SPR; equilibrium
[12] = target: C12; assay: SPR; equilibrium
[13] = target: C3; assay: SPR; equilibrium
[14] = target: C10; assay: SPR; equilibrium
[15] = target: C7; assay: SPR; equilibrium
[16] = target: C9; assay: SPR; equilibrium
[17] = target: B6; assay: SPR; kinetic
[18] = target: T1, IL-13Rα2, biotinylated (human, UniProt Q14627 27-343, biotinylated (site not stated)); assay: SPR; kinetic
T1 chain: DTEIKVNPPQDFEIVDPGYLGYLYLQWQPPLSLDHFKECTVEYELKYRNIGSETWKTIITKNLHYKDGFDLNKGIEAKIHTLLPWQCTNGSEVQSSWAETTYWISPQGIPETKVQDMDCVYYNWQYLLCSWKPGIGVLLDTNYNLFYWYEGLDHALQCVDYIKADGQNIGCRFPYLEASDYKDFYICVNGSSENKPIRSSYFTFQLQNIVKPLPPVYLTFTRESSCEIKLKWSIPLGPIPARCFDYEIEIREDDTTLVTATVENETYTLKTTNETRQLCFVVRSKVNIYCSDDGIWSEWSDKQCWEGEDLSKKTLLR

[19] = target: T1, IL-13Rα2, biotinylated; assay: SPR; kinetic
[20] = target: T1, IL-13Rα2, biotinylated; assay: SPR; equilibrium

Kd [1]: 53 nM
Kd [2]: 0.263 nM
Kd [3]: 0.025 nM
Kd [4]: 0.053 nM
Kd [5]: 0.379 nM
Kd [6]: 5 nM
Kd [7]: 0.272 nM
Kd [8]: 0.259 nM
Kd [9]: 0.267 nM
Kd [10]: 0.218 nM
B1: IL-13Rα2 (receptor)
chain: DTEIKVNPPQDFEIVDPGYLGYLYLQWQPPLSLDHFKECTVEYELKYRNIGSETWKTIITKNLHYKDGFDLNKGIEAKIHTLLPWQCTNGSEVQSSWAETTYWISPQGIPETKVQDMDCVYYNWQYLLCSWKPGIGVLLDTNYNLFYWYEGLDHALQCVDYIKADGQNIGCRFPYLEASDYKDFYICVNGSSENKPIRSSYFTFQLQNIVKPLPPVYLTFTRESSCEIKLKWSIPLGPIPARCFDYEIEIREDDTTLVTATVENETYTLKTTNETRQLCFVVRSKVNIYCSDDGIWSEWSDKQCWEGEDLSKKTLLR
modifications: biotinylated (site not stated)

Kd [11]: 4000 nM
Kd [12]: 15000 nM
Kd [13]: 16000 nM
Kd [14]: 264 nM
Kd [15]: 35000 nM
Kd [16]: 31000 nM
Kd [2]: 2.06 nM
Kd [17]: 5.9 nM
Kd [9]: 1.9 nM
Kd [10]: 1.18 nM
B2: IL-13Rα1 (receptor)
chain: GGGGAAPTETQPPVTNLSVSVENLCTVIWTWNPPEGASSNCSLWYFSHFGDKQDKKIAPETRRSIEVPLNERICLQVGSQCSTNESEKPSILVEKCISPPEGDPESAVTELQCIWHNLSYMKCSWLPGRNTSPDTNYTLYYWHRSLEKIHQCENIFREGQYFGCSFDLTKVKDSSFEQHSVQIMVKDNAGKIKPSFNIVPLTSRVKPDPPHIKNLSFHNDDLYVQWENPQNFISRCLFYEVEVNNSQTETHNVFYVQEAKCENPEFERNVENTSCFMVPGVLPDTLNTVRIRVKTNKLCYEDDKLWSNWSLNDIFEAQKIEWHEHHHHHH
modifications: biotin on the C-terminal biotin acceptor peptide (coexpressed with BirA ligase)

Kd [18]: 0.391 nM
B3: IL-13 variant DN (ligand)
chain: PGPVPPSTAVRALIEELINITQNQKAPLCNGSMVWSINRTAGMYCAALESLINVSGCSAIEKTQDMLSGFCPHKVSAGQFSSLHVRSSKIEVAQFVKDLLFHLRTLFREGQFNHHHHHH

More lines, now with the values behind:

B4: IL-13 variant C11 (ligand)
chain: PGPVPPSTAHRELIEELVNITQNQKAPLCNGSMVWSINLTAGMYCAALESLINVSGCSAIEKTQRMLSGFCPHKVSAGQFSSLHVTGRKIEVAQFVKDLLLHLKKLFKEGQFNHHHHHH
Kd [19]: 0.0001 nM

B5: IL-13 variant C4 (ligand)
chain: PGPVPPSTAVRELIEELVNITQNQKAPLCNGSMVWSINLTAGMYCAALESLINVSGCSAIEKTQRMLSGFCPHKVSAGQFSSLHVRDTRIEVAQFVKDLLNHLKELFTEGQFNHHHHHH
Kd [19]: 0.393 nM

B6: IL-13 variant D7 (ligand)
chain: PGPVPPSTAARELIEELFNITQNQKAPLCNGSMVWSINLTAGMYCAALESLINVSGCSAIEKTKRMLSGFCPHKVSAGQFPSLHVKKTRIEVAQFVKDLLIHLRKLFKEGQFNHHHHHH
Kd [19]: 0.003 nM

B7: IL-13 variant B4 (ligand)
chain: PGPVPPSTALSELIEELINITQNQKAPLCNGSMVWSINPTAGMYCAALESLINVSGCSAIEKTQRMLSGFCPHKVAAGQFSSLHDKGSMIEVAQFVKDLLYHLRTLFREGQFNHHHHHH
Kd [20]: 108 nM

B8: IL-13 variant A11 (ligand)
chain: PGPVPPSTAVRELIEELINITQNQKAPLCNGSMVWSINRTAGMYCAALESLINVSGCSAIEKTQRMLSGFCPHKVSAGQFSSLHVRSSKIEVAQFVKDLLFHLRTLFREGQFNHHHHHH
Kd [19]: 0.391 nM

B9: IL-13 variant A5 (ligand)
chain: PGPVPPSTALIELIEELINITQNQKAPLCNGSMVWSINLTAGIYCAALESLINVSGCSAIEKTQRMLSGFCPHKVSAGQFSSLHVKGSKIEVAQFVKDLLHHLRALMREGQFNHHHHHH
Kd [20]: 50 nM

B10: IL-13 variant B2 (ligand)
chain: PGPVPPSTALRELIEELINITQNEKAPLCNGSMVWSINLTAGIYCAALESLINVSGCSAIEKTQRMLSGFCPHKVSAGQFSSLHVTGSKIEVAQFVKDLLYHLRALFREGQFNHHHHHH
Kd [19]: 1.5 nM
